Laboratory results from patent publication US20110171194A1 (TRUSTEES OF COLUMBIA UNIVERSITY IN THE CITY OF NEW YORK, published 2011).

Target: T1, Aβ(1-42) (UniProt P05067 672-713)
T1 construct: domain: Aβ(1-42); Residue numbers count on Aβ, not on APP
Experiment: 125I-labeled GST-ABAD truncation binding to immobilized Aβ(1-42)

T1 sequence (P05067 672-713 limits assumed): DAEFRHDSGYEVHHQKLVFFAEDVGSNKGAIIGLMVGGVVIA

binding result: no binding
B1: GST-ABAD(159-261) (other, UniProt Q99714 159-261, looked up)
chain: FEGQVGQAAYSASKGGIVGMTLPIARDLAPIGIRVMTIAPGLFGTPLLTSLPEKVCNFLASQVPFPSRLGDPAEYAHLVQAIIENPFLNGEVIRLDGAIRMQP
modifications: 125I-labeled
notes: not shown: glutathione S-transferase (GST) tag
